Assay results reported in patent US20130136748A1 (Ablynx, published 2013).

How the values were obtained:
[1] = biological target: T1, human HER3-Fc (R&D Systems, 348-RB) (human, UniProt P21860 20-643); assay: HRG blocking alphascreen
T1 construct: Bought; also called hHER3-Fc; Fc-HER3; Fc part of the bought chimera not given, not described

[2] = biological target: T1, human HER3-Fc (R&D Systems, 348-RB); assay: HRG competition alphascreen

B1: HER3MS00045 (VHH)
VHH: EVQLVESGGGLVQPGGSLRLSCAASGFTFSSYPMSWVRQAPGKGPEWVSTVSPGGITTSYADSVKGRFTISRDNSKNTLYLQMNSLRPEDTAVYYCARDLNNRGQGTLVTVSS
notes: 04C07 basic + A46E + L93A; also called HER3MS0045
B1 was tested, and the “fold lower potency than parental 04C07” value [1] was 18 fold and the IC50 [2] was 4.91 nM.
